Assay results: patent publication WO2021226442A2 (dated 2021)

How the values were obtained:
[1] = target: T1, human complement component C3 (human, UniProt P01024 23-667; P01024 672-1663); assay: cell-based or functional assay
[2] = target: T1, human complement component C3; assay: SPR (Biacore), antibody captured, C3 injected, 37 C
[3] = target: T2, cynomolgus monkey complement component C3 (cynomolgus monkey, UniProt P01024 24-1663 (human entry)); assay: as above
T2 construct: In the hemolysis assays cyno serum was the source of C3; also called cyno C3
T2 sequence (P01024 other isoform, or with tags, fused parts or gaps): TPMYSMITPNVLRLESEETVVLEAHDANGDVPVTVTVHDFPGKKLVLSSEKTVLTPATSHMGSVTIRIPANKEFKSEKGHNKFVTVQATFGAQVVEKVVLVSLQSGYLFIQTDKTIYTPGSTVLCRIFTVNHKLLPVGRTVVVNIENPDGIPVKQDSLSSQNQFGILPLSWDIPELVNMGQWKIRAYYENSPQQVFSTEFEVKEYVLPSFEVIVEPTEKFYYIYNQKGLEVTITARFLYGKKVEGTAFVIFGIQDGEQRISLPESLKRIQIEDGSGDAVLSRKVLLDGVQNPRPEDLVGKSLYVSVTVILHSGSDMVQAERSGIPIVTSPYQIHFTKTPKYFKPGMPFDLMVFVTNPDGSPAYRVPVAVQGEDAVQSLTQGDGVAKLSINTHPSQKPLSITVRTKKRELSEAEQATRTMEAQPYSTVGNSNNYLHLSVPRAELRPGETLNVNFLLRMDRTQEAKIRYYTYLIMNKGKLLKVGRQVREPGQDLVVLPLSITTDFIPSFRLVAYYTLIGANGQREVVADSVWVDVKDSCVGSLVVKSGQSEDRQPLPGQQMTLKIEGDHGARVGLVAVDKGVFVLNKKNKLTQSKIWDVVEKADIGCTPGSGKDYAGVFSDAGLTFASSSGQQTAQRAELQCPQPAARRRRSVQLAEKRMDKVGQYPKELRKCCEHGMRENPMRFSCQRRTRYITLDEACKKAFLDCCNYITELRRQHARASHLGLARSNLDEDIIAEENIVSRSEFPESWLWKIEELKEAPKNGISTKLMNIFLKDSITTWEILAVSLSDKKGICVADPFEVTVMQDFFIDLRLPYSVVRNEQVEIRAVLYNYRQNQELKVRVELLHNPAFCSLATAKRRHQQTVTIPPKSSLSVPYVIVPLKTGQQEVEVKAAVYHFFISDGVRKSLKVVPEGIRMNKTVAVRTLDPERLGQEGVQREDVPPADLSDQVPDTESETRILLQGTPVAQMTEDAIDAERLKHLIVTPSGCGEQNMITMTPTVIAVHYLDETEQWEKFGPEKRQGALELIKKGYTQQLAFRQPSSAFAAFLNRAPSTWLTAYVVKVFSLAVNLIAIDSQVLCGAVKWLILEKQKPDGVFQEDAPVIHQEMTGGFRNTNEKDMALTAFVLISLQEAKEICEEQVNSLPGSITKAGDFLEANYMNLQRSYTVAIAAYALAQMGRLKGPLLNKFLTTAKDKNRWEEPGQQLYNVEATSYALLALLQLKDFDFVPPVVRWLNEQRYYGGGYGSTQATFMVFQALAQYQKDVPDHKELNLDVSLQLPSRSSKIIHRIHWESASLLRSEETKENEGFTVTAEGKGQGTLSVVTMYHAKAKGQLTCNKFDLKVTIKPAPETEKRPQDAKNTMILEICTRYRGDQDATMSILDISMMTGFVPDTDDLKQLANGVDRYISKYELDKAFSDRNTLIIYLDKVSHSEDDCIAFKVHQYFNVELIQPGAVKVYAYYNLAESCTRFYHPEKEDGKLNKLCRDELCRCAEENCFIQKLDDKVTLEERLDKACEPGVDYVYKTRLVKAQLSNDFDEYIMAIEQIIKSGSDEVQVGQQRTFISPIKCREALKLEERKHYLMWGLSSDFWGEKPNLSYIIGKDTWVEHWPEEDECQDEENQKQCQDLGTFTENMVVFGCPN

[4] = target: T1, human complement component C3; assay: SPR (Biacore)
[5] = target: T1, human complement component C3; assay: SPR (Biacore), compared with Hz38G10
[6] = target: T1, human complement component C3; assay: SPR (Biacore), antibody captured by anti-Fc on CM5 chip, C3 injected 0.62-40 nM, 37 C
[7] = target: T2, cynomolgus monkey complement component …; assay: as above

T1 sequence (P01024 23-667, chain 1 of 2): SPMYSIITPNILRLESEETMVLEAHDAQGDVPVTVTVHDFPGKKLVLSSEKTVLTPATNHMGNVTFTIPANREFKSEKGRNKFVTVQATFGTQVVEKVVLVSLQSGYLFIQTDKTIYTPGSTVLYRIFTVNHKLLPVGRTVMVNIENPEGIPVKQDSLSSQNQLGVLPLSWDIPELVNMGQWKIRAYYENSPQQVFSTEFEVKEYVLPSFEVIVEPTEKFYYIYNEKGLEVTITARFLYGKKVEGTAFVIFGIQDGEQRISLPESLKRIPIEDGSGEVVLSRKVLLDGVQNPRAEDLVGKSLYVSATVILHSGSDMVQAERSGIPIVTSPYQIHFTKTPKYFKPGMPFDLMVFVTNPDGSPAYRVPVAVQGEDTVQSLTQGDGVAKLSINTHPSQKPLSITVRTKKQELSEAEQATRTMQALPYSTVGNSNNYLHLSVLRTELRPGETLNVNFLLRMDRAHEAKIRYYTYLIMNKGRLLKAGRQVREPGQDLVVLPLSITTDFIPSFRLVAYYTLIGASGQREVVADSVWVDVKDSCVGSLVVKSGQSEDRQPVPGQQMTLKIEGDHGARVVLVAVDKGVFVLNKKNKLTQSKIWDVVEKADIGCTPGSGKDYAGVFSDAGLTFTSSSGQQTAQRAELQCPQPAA
T1 sequence (P01024 672-1663, chain 2 of 2): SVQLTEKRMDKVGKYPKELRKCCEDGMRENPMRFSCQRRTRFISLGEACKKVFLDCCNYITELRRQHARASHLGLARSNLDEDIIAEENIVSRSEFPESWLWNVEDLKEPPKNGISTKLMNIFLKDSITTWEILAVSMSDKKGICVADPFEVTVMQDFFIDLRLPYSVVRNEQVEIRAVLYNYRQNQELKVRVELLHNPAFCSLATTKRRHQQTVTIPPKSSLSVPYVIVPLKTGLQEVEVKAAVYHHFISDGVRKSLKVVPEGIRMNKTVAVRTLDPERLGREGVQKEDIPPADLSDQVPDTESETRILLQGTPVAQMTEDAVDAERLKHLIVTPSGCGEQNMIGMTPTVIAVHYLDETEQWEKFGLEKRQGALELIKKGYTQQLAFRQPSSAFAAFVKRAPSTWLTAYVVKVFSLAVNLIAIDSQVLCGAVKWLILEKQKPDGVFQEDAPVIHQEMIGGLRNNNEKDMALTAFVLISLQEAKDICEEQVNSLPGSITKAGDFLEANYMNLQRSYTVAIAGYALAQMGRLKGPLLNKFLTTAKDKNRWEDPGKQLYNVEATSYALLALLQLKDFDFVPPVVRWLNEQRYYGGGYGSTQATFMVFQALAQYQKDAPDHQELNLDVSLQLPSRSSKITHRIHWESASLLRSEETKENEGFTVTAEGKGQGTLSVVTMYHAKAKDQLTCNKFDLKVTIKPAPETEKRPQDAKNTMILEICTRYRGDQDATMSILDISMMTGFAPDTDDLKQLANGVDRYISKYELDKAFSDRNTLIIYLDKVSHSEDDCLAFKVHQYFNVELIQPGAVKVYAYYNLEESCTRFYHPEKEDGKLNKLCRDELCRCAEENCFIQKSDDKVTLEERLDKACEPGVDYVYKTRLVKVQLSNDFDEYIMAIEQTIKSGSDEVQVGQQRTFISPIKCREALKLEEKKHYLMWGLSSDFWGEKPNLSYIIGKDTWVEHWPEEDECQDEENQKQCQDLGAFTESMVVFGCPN

B1: antibody Hz38G10 (antibody, human IgG1, kappa, V domains shown)
VH: QVQLVQSGAEVKKPGASVKVSCKASGYTFTDFYMDWVRQAPGQRLEWMGYIYPHNGGTTYNQQFTGRVTITVDKSASTAYMELSSLRSEDTAVYYCARRGGFDFDYWGQGTLVTVSS
VL: DIQMTQSPSSLSASVGDRVTITCKASENVDTYVSWYQQKPGKAPKLLIYGASNRYTGVPSRFSGSGSGTDFTFTISSLQPEDIATYHCGQSHSYPLTFGQGTKLEIKR
notes: also called humanized 38G10; Hz38G10 intact antibody
In the case of B1, the “alternative pathway hemolysis assay, fold against COMP or COMP-PEG” value [1] is reported as ~10 fold, the Kd [2] is reported as 0.3 nM and the Kd [3] is reported as 1.8 nM.

B2: variant of antibody Hz38G10 with a N55D mutation in the heavy chain CDR2 (antibody, V domains shown)
VH: QVQLVQSGAEVKKPGASVKVSCKASGYTFTDFYMDWVRQAPGQRLEWMGYIYPHDGGTTYNQQFTGRVTITVDKSASTAYMELSSLRSEDTAVYYCARRGGFDFDYWGQGTLVTVSS
VL: DIQMTQSPSSLSASVGDRVTITCKASENVDTYVSWYQQKPGKAPKLLIYGASNRYTGVPSRFSGSGSGTDFTFTISSLQPEDIATYHCGQSHSYPLTFGQGTKLEIK
notes: Mimics a fully deamidated molecule; also called Hz38G10 N55D variant
B2: binds [4].

B3: antibody Hz38G10(G56T) (antibody, V domains shown)
VH: QVQLVQSGAEVKKPGASVKVSCKASGYTFTDFYMDWVRQAPGQRLEWMGYIYPHNTGTTYNQQFTGRVTITVDKSASTAYMELSSLRSEDTAVYYCARRGGFDFDYWGQGTLVTVSS
VL: DIQMTQSPSSLSASVGDRVTITCKASENVDTYVSWYQQKPGKAPKLLIYGASNRYTGVPSRFSGSGSGTDFTFTISSLQPEDIATYHCGQSHSYPLTFGQGTKLEIK
B3: binds [5].

B4: antibody Hz38G10(N55E) (antibody, V domains shown)
VH: QVQLVQSGAEVKKPGASVKVSCKASGYTFTDFYMDWVRQAPGQRLEWMGYIYPHEGGTTYNQQFTGRVTITVDKSASTAYMELSSLRSEDTAVYYCARRGGFDFDYWGQGTLVTVSS
VL: DIQMTQSPSSLSASVGDRVTITCKASENVDTYVSWYQQKPGKAPKLLIYGASNRYTGVPSRFSGSGSGTDFTFTISSLQPEDIATYHCGQSHSYPLTFGQGTKLEIK
B4: binds [5].

B5: antibody Hz38G10(N55Q) (antibody, V domains shown)
VH: QVQLVQSGAEVKKPGASVKVSCKASGYTFTDFYMDWVRQAPGQRLEWMGYIYPHQGGTTYNQQFTGRVTITVDKSASTAYMELSSLRSEDTAVYYCARRGGFDFDYWGQGTLVTVSS
VL: DIQMTQSPSSLSASVGDRVTITCKASENVDTYVSWYQQKPGKAPKLLIYGASNRYTGVPSRFSGSGSGTDFTFTISSLQPEDIATYHCGQSHSYPLTFGQGTKLEIK
B5: binds [5].

B6: antibody Hz38G10(G56A) (antibody, human IgG1, kappa, V domains shown)
VH: QVQLVQSGAEVKKPGASVKVSCKASGYTFTDFYMDWVRQAPGQRLEWMGYIYPHNAGTTYNQQFTGRVTITVDKSASTAYMELSSLRSEDTAVYYCARRGGFDFDYWGQGTLVTVSS
VL: DIQMTQSPSSLSASVGDRVTITCKASENVDTYVSWYQQKPGKAPKLLIYGASNRYTGVPSRFSGSGSGTDFTFTISSLQPEDIATYHCGQSHSYPLTFGQGTKLEIKR
B6: binds [5].

B7: Hz38G10 dsscFv (VL-linker-VH disulfide-stabilized scFv) (scFv)
scFv: MDIQMTQSPSSLSASVGDRVTITCKASENVDTYVSWYQQKPGKAPKLLIYGASNRYTGVPSRFSGSGSGTDFTFTISSLQPEDIATYHCGQSHSYPLTFGCGTKLEIKGGGGSGGGGSGGGGSQVQLVQSGAEVKKPGASVKVSCKASGYTFTDFYMDWVRQAPGQCLEWMGYIYPHNGGTTYNQQFTGRVTITVDKSASTAYMELSSLRSEDTAVYYCARRGGFDFDYWGQGTLVTVSS
notes: scFv with an engineered disulfide bond between VL and VH; also called Hz38G10 VL-linker-VH dsscFv
B7: binds [4].

B8: antibody 38G10 (antibody, V domains shown)
VH: EVQLQQSGPELVKPGDSVKMSCKASGYTFTDFYMDWVKQSHGKSLEWIGYIYPHNGGTTYNQNFTGKATLTVDKSSNTAYMELHSLTSEDSAVYYCARRGGFDFDYWGQGTTLTVSS
VL: NIVMTQSPKSMSLSVGERVTLRCKASENVDTYVSWYQQKPEQSPKLLIYGASNRYTGVPDRFTGSGSATEFTLTISSVQAEDLVGYHCGQSHSYPLTFGAGTKLELK
notes: Mouse hybridoma monoclonal antibody; also called parental 38G10 antibody
B8 was tested, and the Kd [2] was ~0.1 nM, the Kd [3] was ~0.1 nM and the Kd [6] was 0.19 nM. The Kd [7] was 0.16 nM.
